T1: full-length beta-Catenin (Uniprot ID P35222) (Homo sapiens (Human), UniProt P35222 2-781)
T1 construct: 'mature' is the nearest allowed form; also called bCat; B-Catenin
T1 sequence: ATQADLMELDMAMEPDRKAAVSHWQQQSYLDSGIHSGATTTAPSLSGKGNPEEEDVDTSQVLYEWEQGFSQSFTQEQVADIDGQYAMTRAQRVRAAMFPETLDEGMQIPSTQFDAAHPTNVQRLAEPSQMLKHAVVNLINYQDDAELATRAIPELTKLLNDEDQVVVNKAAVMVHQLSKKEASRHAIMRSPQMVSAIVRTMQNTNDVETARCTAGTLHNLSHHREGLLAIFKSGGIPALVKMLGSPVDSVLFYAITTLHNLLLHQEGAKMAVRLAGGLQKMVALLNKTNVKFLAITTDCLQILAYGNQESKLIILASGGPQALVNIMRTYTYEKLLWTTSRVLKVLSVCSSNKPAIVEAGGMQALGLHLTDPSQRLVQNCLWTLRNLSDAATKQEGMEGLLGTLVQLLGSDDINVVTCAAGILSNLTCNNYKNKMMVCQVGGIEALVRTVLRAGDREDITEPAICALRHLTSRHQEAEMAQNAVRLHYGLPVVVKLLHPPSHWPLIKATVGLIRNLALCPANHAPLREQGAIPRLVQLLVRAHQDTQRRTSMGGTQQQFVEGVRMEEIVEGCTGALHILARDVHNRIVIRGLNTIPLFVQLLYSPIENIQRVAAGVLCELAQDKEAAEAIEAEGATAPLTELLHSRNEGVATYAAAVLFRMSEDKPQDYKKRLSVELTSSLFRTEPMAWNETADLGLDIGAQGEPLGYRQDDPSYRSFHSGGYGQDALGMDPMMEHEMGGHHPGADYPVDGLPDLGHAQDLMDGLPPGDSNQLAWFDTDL

B1: I-664 (peptide)
peptide: Ac-[αAllylPro]DI[B5(9)]DEAWFQ[S8]F[Bta]Q-NH2
modifications: staple 1-4, 4-11
notes: Stapled peptide composition; earlier-eluting HPLC peak (staple isomer)
B2: I-650 (peptide)
peptide: Ac-[αAllylPro]DI[B5(16)]DEFAFQ[S8]F[Bta]Q-NH2
modifications: staple 1-4, 4-11
notes: Stapled peptide composition; later-eluting HPLC peak (staple isomer)
B3: I-655 (peptide)
peptide: Ac-[αAllylPro]DI[B5(16)]DEWAFQ[S8]F[Bta]Q-NH2
modifications: staple 1-4, 4-11
notes: Stapled peptide composition
B4: I-658 (peptide)
peptide: XDIXDEALFQXFXQ
modifications: not fully specified; As printed: Ac-PL3-Asp-Ile-B5-Asp-Glu-Ala-Leu-Phe-Gln-S8-Phe-BztA-Gln-NH2; N-terminal Ac; PL3 at 1, B5 at 4, S8 at 11 (stapled 1-4 and 4-11); BztA at 13; C-terminal NH2
notes: as for B1
B5: I-661 (peptide)
peptide: XDIXDEASFQXFXQ
modifications: not fully specified; As printed: Ac-PL3-Asp-Ile-B5-Asp-Glu-Ala-Ser-Phe-Gln-S8-Phe-BztA-Gln-NH2; N-terminal Ac; PL3 at 1, B5 at 4, S8 at 11 (stapled 1-4 and 4-11); BztA at 13; C-terminal NH2
notes: as for B1
B6: I-662 (peptide)
peptide: XDIXDEASFQXFXQ
modifications: not fully specified; As printed: Ac-PL3-Asp-Ile-B5-Asp-Glu-Ala-Ser-Phe-Gln-S8-Phe-BztA-Gln-NH2; N-terminal Ac; PL3 at 1, B5 at 4, S8 at 11 (stapled 1-4 and 4-11); BztA at 13; C-terminal NH2
notes: as for B2
B7: I-647 (peptide)
peptide: Ac-[αAllylPro]DI[B5(9)]DELAFQ[S8]F[Bta]Q-NH2
modifications: staple 1-4, 4-11
notes: as for B1
B8: I-651 (peptide)
peptide: Ac-[αAllylPro]DI[B5(16)]DESAFQ[S8]F[Bta]Q-NH2
modifications: staple 1-4, 4-11
notes: as for B1
B9: I-660 (peptide)
peptide: Ac-[αAllylPro]DI[B5(19)]DEAFFQ[S8]F[Bta]Q-NH2
modifications: staple 1-4, 4-11
notes: Stapled peptide composition
B10: I-663 (peptide)
peptide: Ac-[αAllylPro]DI[B5(19)]DEAQFQ[S8]F[Bta]Q-NH2
modifications: staple 1-4, 4-11
notes: Stapled peptide composition
B11: I-665 (peptide)
peptide: Ac-[αAllylPro]DI[B5(9)]DEAWFQ[S8]F[Bta]Q-NH2
modifications: staple 1-4, 4-11
notes: as for B2
B12: I-649 (peptide)
peptide: Ac-[αAllylPro]DI[B5(9)]DEFAFQ[S8]F[Bta]Q-NH2
modifications: staple 1-4, 4-11
notes: as for B1
B13: I-648 (peptide)
peptide: Ac-[αAllylPro]DI[B5(9)]DELAFQ[S8]F[Bta]Q-NH2
modifications: staple 1-4, 4-11
notes: as for B2
B14: I-652 (peptide)
peptide: Ac-[αAllylPro]DI[B5(16)]DESAFQ[S8]F[Bta]Q-NH2
modifications: staple 1-4, 4-11
notes: as for B2
B15: I-669 (peptide)
peptide: Ac-[αAllylPro][d(βAsp)]I[B5(9)]DEAAFQ[S8]F[Bta]Q-NH2
modifications: staple 1-4, 4-11
notes: as for B2
B16: I-673 (peptide)
peptide: Ac-[αAllylPro]DI[B5(9)][βAsp]EAAFQ[S8]F[Bta]Q-NH2
modifications: staple 1-4, 4-11
notes: Stapled peptide composition

Starred links: 1 amine or outer side, 2 acyl side, 3 side chain; linkers in the order of their positions; H or OH if unused. Positions of bridges follow the written chain, without caps; N, C: chain ends. Non-standard residues stand in square brackets, D forms with d. Primed or numbered codes have the meaning given here. B5(16) = 2-amino-2-(pent-4-en-1-yl)hept-6-enoic acid = 2,2-bis(4-pentenyl)glycine (stitching residue), C=CCCCC(CCCC=C)(N[*:1])C(=O)[*:2]; B5(9) = 2-amino-2-(pent-4-en-1-yl)hept-6-enoic acid (2,2-bis(4-pentenyl)glycine), C=CCCCC(CCCC=C)(N[*:1])C(=O)[*:2]; B5(19) = 2-amino-2-(pent-4-en-1-yl)hept-6-enoic acid (bis(4-pentenyl)glycine), C=CCCCC(CCCC=C)(N[*:1])C(=O)[*:2]; d(βAsp) = O=C(O)[C@@H](CC(=O)[*:2])N[*:1]; βAsp = O=C(O)[C@H](CC(=O)[*:2])N[*:1]; Bta = N[C@@H](Cc1csc2ccccc12)C(=O)O; αAllylPro = C=CC[C@@]1(C(=O)O)CCCN1; S8 = C=CCCCCCC[C@](C)(N)C(=O)O

As a reminder, the EC50 is the concentration at which the effect is half-maximal. A lower EC50 goes with a more potent agent.

In this assay the target is T1, full-length beta-Catenin (Uniprot ID …). Briefly: fluorescence polarization competition, full-length beta-catenin with 5FAM-TCF4(10-53) probe as competitor. The procedure:
The plate was incubated protected from light for 60 minutes at 20° C. prior to read. Reads were performed on a CLARIOstar plate reader (BMG Labtech) in duplicate, and data were fitted to a 1:1 binding model with hill slope using an in-house script. All provided concentrations are final concentrations.
On the technique in general: Polarisation of emitted light reports the rotation of a fluorescent probe.
For B1, the EC50 was found to be 996 nM.
The figure for B2 is 137 nM; for B3 it is 183 nM.
The figure for B4 is 546 nM.
For B5 the value was 45 nM; for B6, 26 nM; for B7, 445 nM.
As to B8, the midpoint of the response, the EC50, lay at 186 nM.
B9 registered a concentration giving a half-maximal response (EC50) of 544 nM.
The figure for B10 is 43 nM.
The figure for B11 is 923 nM.
For the molecule B12, the concentration giving a half-maximal response (EC50) was 209 nM.
The figure for B13 is 233 nM; for B14 it is 72 nM; for B15 it is 451 nM.
The figure for B16 is 5000 nM.
